B3: RicA residues 1 to 122 (C-terminally truncated, for crystallography) (domain or fragment, B. subtilis, UniProt O31779 1-122, looked up)
chain: MTLYSKKDIVQQARNLAKMISETEEVDFFKRAEAQINENDKVSTIVNQIKALQKQAVNLKHYEKHEALKQVEAKIDALQEELEEIPVIQEFRDSQMEVNDLLQLVAHTISNQVTNEIITSTG
notes: also called truncated RicA; RicA (amino acids 1 to 122)

Data set [1] has as its target RicA of Bacillus anthracis (B. anthracis). As to the kind of experiment: AUC.
Data set [2] deals with T1, RicF (YlbF) of Bacillus subtilis (B. subtilis, UniProt O34412 1-149).
T1 construct: also called RicF^Bsu
T1 sequence (looked up): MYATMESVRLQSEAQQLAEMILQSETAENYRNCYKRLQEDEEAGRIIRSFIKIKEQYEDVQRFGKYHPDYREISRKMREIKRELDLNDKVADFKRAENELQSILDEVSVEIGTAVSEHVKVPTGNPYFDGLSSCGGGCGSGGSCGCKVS
In words: pull-down. The conditions noted are these: partners not purified.

Data set [3] concerns the molecule itself. In words: SEC; […]; 20 mM Tris-HCl pH 8.0, 150 mM NaCl, 1 mM DTT. For orientation: Size exclusion chromatography separates by hydrodynamic size, large species first.
Data set [4] deals with the molecule itself. In words: crystal structure.
Data set [5] concerns the target B3. As to the kind of experiment: crystal structure; RicAF crystals; hanging drop, 18% PEG 500 MME, 8% MPD, 100 mM sodium nitrate, 100 mM MOPS, sodium HEPES pH 7.3. The note with it: both partners purified.

A word on the stoichiometry N: it is the number of molecules, sites or subunits per partner or assembly. “RicF of Bacillus anthracis (natural protein)” came in with a stoichiometry N in data set [1] of 1.

B1: RicA (YmcA) of Bacillus subtilis (natural protein, B. subtilis, UniProt O31779 1-143, looked up)
chain: MTLYSKKDIVQQARNLAKMISETEEVDFFKRAEAQINENDKVSTIVNQIKALQKQAVNLKHYEKHEALKQVEAKIDALQEELEEIPVIQEFRDSQMEVNDLLQLVAHTISNQVTNEIITSTGGDLLKGETGSKVKHSNNSCSL
notes: also called RicA^Bsu
B1: in data set [2], the binding result was “binds”.

B2: RicA (YmcA) of Bacillus subtilis, expressed alone and purified (natural protein, B. subtilis)
chain: MTLYSKKDIVQQARNLAKMISETEEVDFFKRAEAQINENDKVSTIVNQIKALQKQAVNLKHYEKHEALKQVEAKIDALQEELEEIPVIQEFRDSQMEVNDLLQLVAHTISNQVTNEIITSTGGDLLKGETGSKVKHSNNSCSL
notes: also called RicA dimer; GST-RicA
As to B2, the “stoichiometry N” value in data set [3] amounted to 2.

As to B3, in data set [4], the binding result is “binds”.

B4: RicF residues 1 to 121 (C-terminally truncated, for crystallography) (domain or fragment, B. subtilis, UniProt O34412 1-121, looked up)
chain: MYATMESVRLQSEAQQLAEMILQSETAENYRNCYKRLQEDEEAGRIIRSFIKIKEQYEDVQRFGKYHPDYREISRKMREIKRELDLNDKVADFKRAENELQSILDEVSVEIGTAVSEHVKV
notes: also called truncated RicF
Consider B4, for which, in data set [5], the binding result was “binds”.

Source of the values: publication PMC6751060 (mBio, 2019).
